Type: physicochemical
Details: 10 mM PBS buffer (pH=7.4), 37° C., 100 rpm shaker; free drug by HPLC, average release per day
Method: The drug release and stability experiments were run using the test compounds. About 2.5±1.0 mg/mL (with regard to conjugate) solution of each test compound was prepared with 10 mM PBS buffer (pH=7.4) in Millipore Amicon® Ultra-0.5 ml 30 k Ultrafiltration centrifuge tube. The solution was kept swelling for 1 h at room temperature and then placed in a shaker at 100 rpm, 37° C. for continuous experiment. At the same time point of each day, samples were centrifuged at 10000 rpm for 1 h. The aliquot was transferred to HPLC vial for analysis. An 0.4 mL of 10 mM PBS buffer was added into the centrifuge tube and continue the experiment.
For the HPLC analysis at each time point, the peak areas of all relevant peaks from the chromatograms were retrieved and the concentration of free drug was calculated. Average release of free drug was calculated based on the sum of free drug and numbers of experiment days. The computing equation is as below.
The sample degradation rate was calculated based on the concentration and degree of substitution (NMR) for conjugated drug with regard to the initial starting point of the experiment (at t=0). The computing equation is as below.

Row | Substance | Release rate [%/day]
1 | Conjugate of HA and 2-((8S,9S,10R,11S,13S,14S,17R)-11,17-dihydroxy-10,13-dimethyl-3-oxo-6,7,8,9,10,11,12,13,14,15,16,17-dodecahydro-3H-cyclopenta[a]phenanthren-17-yl)-2-oxoethyl 6-aminohexanoate [Example 81] | 1.71
2 | Conjugate of HA and 2-((8S,9S,10R,11S,13S,14S,17R)-11,17-dihydroxy-10,13-dimethyl-3-oxo-6,7,8,9,10,11,12,13,14,15,16,17-dodecahydro-3H-cyclopenta[a]phenanthren-17-yl)-2-oxoethyl-5-aminopentanoate [Example 75] | 4.80
3 | Conjugate of HA and 2-((8S,9S,10R,13S,14S,17R)-17-hydroxy-10,13-dimethyl-3,11-dioxo-2,3,6,7,8,9,10,11,12,13,14,15,16,17-tetradecahydro-1H-cyclopenta[a]phenanthren-17-yl)-2-oxoethyl 4-aminobutanoate [Example 40] | 2.49
4 | Conjugate of HA and 2-((8S,9S,10R,13S,14S,17R)-17-hydroxy-10,13-dimethyl-3,11-dioxo-2,3,6,7,8,9,10,11,12,13,14,15,16,17-tetradecahydro-1H-cyclopenta[a]phenanthren-17-yl)-2-oxoethyl 5-aminopentanoate [Example 77] | 4.81
5 | Conjugate of HA and 2-((8S,9S,10R,13S,14S,17R)-17-hydroxy-10,13-dimethyl-3,11-dioxo-2,3,6,7,8,9,10,11,12,13,14,15,16,17-tetradecahydro-1H-cyclopenta[a]phenanthren-17-yl)-2-oxoethyl 6-aminohexanoate [Example 94] | 2.85
6 | Conjugate of HA and 2-((8S,9S,10R,13S,14S,17R)-17-hydroxy-10,13-dimethyl-3,11-dioxo-6,7,8,9,10,11,12,13,14,15,16,17-dodecahydro-3H-cyclopenta[a]phenanthren-17-yl)-2-oxoethyl 5-aminopentanoate [Example 74] | 4.06
7 | Conjugate of HA and 2-((8S,9S,10R,13S,14S,17R)-17-hydroxy-10,13-dimethyl-3,11-dioxo-6,7,8,9,10,11,12,13,14,15,16,17-dodecahydro-3H-cyclopenta[a]phenanthren-17-yl)-2-oxoethyl 6-aminohexanoate [Example 92] | 8.21
8 | Conjugate of HA and 4-aminobutyl (2-((6S,8S,9S,10R,11S,13S,14S,17R)-11,17-dihydroxy-6,10,13-trimethyl-3-oxo-6,7,8,9,10,11,12,13,14,15,16,17-dodecahydro-3H-cyclopenta[a]phenanthren-17-yl)-2-oxoethyl) carbonate [Example 68] | 8.02
9 | Conjugate of HA and 4-aminobutyl (2-((8S,9R,10S,11S,13S,14S,16R,17R)-9-fluoro-11,17-dihydroxy-10,13,16-trimethyl-3-oxo-6,7,8,9,10,11,12,13,14,15,16,17-dodecahydro-3H-cyclopenta[a]phenanthren-17-yl)-2-oxoethyl) carbonate [Example 70] | 3.49
10 | Conjugate of HA and 4-aminobutyl (2-((8S,9R,10S,11S,13S,14S,16S,17R)-9-fluoro-11,17-dihydroxy-10,13,16-trimethyl-3-oxo-6,7,8,9,10,11,12,13,14,15,16,17-dodecahydro-3H-cyclopenta[a]phenanthren-17-yl)-2-oxoethyl) carbonate [Example 72] | 7.86
11 | Conjugate of HA and 4-aminobutyl (2-((8S,9S,10R,11S,13S,14S,17R)-11,17-dihydroxy-10,13-dimethyl-3-oxo-2,3,6,7,8,9,10,11,12,13,14,15,16,17-tetradecahydro-1H-cyclopenta[a]phenanthren-17-yl)-2-oxoethyl) carbonate [Example 64] | 7.61
12 | Conjugate of HA and 4-aminobutyl (2-((8S,9S,10R,11S,13S,14S,17R)-11,17-dihydroxy-10,13-dimethyl-3-oxo-6,7,8,9,10,11,12,13,14,15,16,17-dodecahydro-3H-cyclopenta[a]phenanthren-17-yl)-2-oxoethyl) carbonate [Example 62] | 0.14
13 | Conjugate of HA and 4-aminobutyl (2-((8S,9S,10R,13S,14S,17R)-17-hydroxy-10,13-dimethyl-3,11-dioxo-2,3,6,7,8,9,10,11,12,13,14,15,16,17-tetradecahydro-1H-cyclopenta[a]phenanthren-17-yl)-2-oxoethyl) carbonate [Example 66] | 11.18
14 | Conjugate of HA and 4-aminobutyl (2-((8S,9S,10R,13S,14S,17R)-17-hydroxy-10,13-dimethyl-3,11-dioxo-6,7,8,9,10,11,12,13,14,15,16,17-dodecahydro-3H-cyclopenta[a]phenanthren-17-yl)-2-oxoethyl) carbonate [Example 60] | 15.04
15 | Conjugate of HA and 5-aminopentyl (2-((6S,8S,9S,10R,11S,13S,14S,17R)-11,17-dihydroxy-6,10,13-trimethyl-3-oxo-6,7,8,9,10,11,12,13,14,15,16,17-dodecahydro-3H-cyclopenta[a]phenanthren-17-yl)-2-oxoethyl) carbonate [Example 86] | 6.93
16 | Conjugate of HA and 5-aminopentyl (2-((8S,9R,10S,11S,13S,14S,16R,17R)-9-fluoro-11,17-dihydroxy-10,13,16-trimethyl-3-oxo-6,7,8,9,10,11,12,13,14,15,16,17-dodecahydro-3H-cyclopenta[a]phenanthren-17-yl)-2-oxoethyl) carbonate [Example 87] | 6.96
17 | Conjugate of HA and 5-aminopentyl (2-((8S,9S,10R,11S,13S,14S,17R)-11,17-dihydroxy-10,13-dimethyl-3-oxo-2,3,6,7,8,9,10,11,12,13,14,15,16,17-tetradecahydro-1H-cyclopenta[a]phenanthren-17-yl)-2-oxoethyl) carbonate [Example 90] | 4.56
18 | Conjugate of HA and 5-aminopentyl (2-((8S,9S,10R,11S,13S,14S,17R)-11,17-dihydroxy-10,13-dimethyl-3-oxo-6,7,8,9,10,11,12,13,14,15,16,17-dodecahydro-3H-cyclopenta[a]phenanthren-17-yl)-2-oxoethyl) carbonate [Example 85] | 7.65
19 | Conjugate of HA and 5-aminopentyl (2-((8S,9S,10R,13S,14S,17R)-17-hydroxy-10,13-dimethyl-3,11-dioxo-2,3,6,7,8,9,10,11,12,13,14,15,16,17-tetradecahydro-1H-cyclopenta[a]phenanthren-17-yl)-2-oxoethyl) carbonate [Example 91] | 11.66
20 | Conjugate of HA and 5-aminopentyl (2-((8S,9S,10R,13S,14S,17R)-17-hydroxy-10,13-dimethyl-3,11-dioxo-6,7,8,9,10,11,12,13,14,15,16,17-dodecahydro-3H-cyclopenta[a]phenanthren-17-yl)-2-oxoethyl) carbonate [Example 89] | 8.12

— patent publication US20240398963A1 (priority 2021, published 2024)
